Here are results for seven sequences from the DeepSol protein solubility set.

The nature of the data set: soluble on expression in E. coli; label from the status in PepcDB or PDB records.
For the sequence “GPGSMDESNRVPTGEAPSDEPPLKVRRHEGGHGELRETSSGDTNPQGATLFIRCTSIHGRGELLNGFISEHREALGVAKWYNVAGDESDGRCVPTLRTDAPFECVYVRSSRKPYFLLEFNEKGDVAKKFVEKLVGLRNTLYKGSPVFVEVAKGGLTVATERLKLEKRDAARRSATAVPLSFSSDKPTGPTAFVPRAVRKR”, the “soluble on expression in E. coli” value is recorded as “soluble”.

As to “RHMRIAVIGGGSSYTPELVKGLLDISEDVRIDEVIFYDIDEEKQKIVVDFVKRLVKDRFKVLISDTFEGAVVDAKYVIFQFRPGGLKGRENDEGIPLKYGLIGQETTGVGGFSAALRAFPIVEEYVDTVRKTSNATIVNFTNPSGHITEFVRNYLEYEKFIGLCNVPINFIREIAEMFSARLEDVFLKYYGLNHLSFIEKVFVKGEDVTEKVFENLKLKLSNIPDEDFPTWFYDSVRLIVNPYLRYYLMEKKMFKKISTHELRAREVMKIEKELFEKYRTAVEIPEELTKRGGSMYSTAAAHLIRDLETDEGKIHIVNTRNNGSIENLPDDYVLEIPCYVRSGRVHTLSQGKGDHFALSFIHAVKMYERLTIEAYLKRSKKLALKALLSHPLGPDVEDAKDLLEEILEANREYVKLG”, the “soluble on expression in E. coli” value is on record as “soluble”.

On to “MGSDKIHHHHHHMKVLVPATTTNLGAGFDVFGLALDLFNEVEFSFDTKETTIESTGKYASDLKDHNLFFEVLRFFERKTGYRVPPVRIKQTCNIPVSSGLGSSAAVIVAALHIANEGTGRNLSREDLMKLAVELEGHPDNVVPAFTGGLVVCYQNGSHLDFEKFEIDLSLTFLVPNFPVCTNEMRKILPEKVPFEDAVFNIKNSCQFLAKIAAGKIKEALKYVGDRLHQNYRINGNKKMKEFVEAILSKNPEYWFVSGSGPSVCSNINDFEGIPYLKDVLKLRVNNRGMIVSE”, for which the “soluble on expression in E. coli” value was “not soluble”.

Turning to “MGSDKIHHHHHHATRSGKTPVSVELEIGGLPGDESVDDAIDPDLENPNTSFDLLFIPKEFTFETQAISGDLTAVPIRPSEGNTHTMRHFGMGDVRGALTGWHVTAEIPHMRNEAHSLLGIITFQLTGSYARYDKTLRRFFMTNTMYGLDFSEDPAAPDFPTNPIIIGNGATLMSNAGDRKGQGMWSGRMTDISLAIQTPVSQLFPGAYTGSIIWNLISGPV”, the “soluble on expression in E. coli” value is recorded as “not soluble”.

Regarding “MGSDKIHHHHHHMVNFSYRVFAAVVEKKTFFHAAESLNVTPSAVSHSISQLENELGFPLFLRNHSGVELTNDGKTVLPVIQAILNTEEELYQVSASIKGLNSGRIRIGAFSSVCINWLPTIIRRFKNQYPQVEVTVFQGNFNQIADGVSNGSIDIGFSSLPVDDKLLVEPLIKDRIYCVAPSDFVPKDKMNVTNQDIGRRRFILQQIDYDRDTKKALDQYNVTPNSLTYSIDDQSILSMVESGLGLGILPELALKKLSGNVHIYPFDKNFARTICLVTNKNLAQAPSTKRMLKEINSFLRSNYKNQFLG”, the “soluble on expression in E. coli” value is “not soluble”.

Consider “MSLHGEKAPFPLTLIHINDLHARFDETNQKSSTCTNSKECIAGIARVYHTIKQLKSEYKTKNPLYLNAGDNFQGTLWYNLLRWNVTAYFIKELPPDAMTLGNHEFDHSPKGLAPYLAELEKMKIPTVVANLEKNGEPALKDSKIARSIVLKVGNRKVGVIGALYDKTHLVAQTGMVTLTNSIEAVRKEAQELKKKNVNIIVVLSHCGLDGDKQLAEEAGDLIDVIVGAHSHSLLLNKDAKVPYDTKYDTIEGDYPLVVKKSNNHTVLITQARSFGKYVGRLTVNFDCEGEVQSWEGYPIYMNNSVKEGHHHHHH”, for which the “soluble on expression in E. coli” value is on record as “soluble”.

Take “MTEVIGIKFEENGAVEYVVPDKNYTKGDFVVVLEKKDKRLAQVVMENTVFPEVSLPVDLNRVEGLASKRDFARYDENLLKAEQSMGVVADLIAQNQLDMKVVDIVFPLNSSYVLISFVAEKRVDFRQLLEDLAAYFKTRIELRQISSREESKIYGGLGPCGRALCCSSFLGEFPPVSIKMAKNQSLSLNSGKMNGVCGRLMCCLSYEDDFYRDSKASYPDLGEEIETKEGRGQVIAIDVIAGTVKVMFEKGGAPLTYGVEEVQLNGKAAAALEHHHHHH”: the “soluble on expression in E. coli” value is listed as “soluble”.
